Article PMC3418412

How the values were obtained:
[1] = biological target: purified Hsp90-Y313E (UniProt P07900)
[2] = biological target: purified wild type Hsp90 (UniProt P07900)

Kd [1]: 3.7 µM | Kd [2]: 13 µM
Substance: purified AHA1 protein (from UniProt O95433 1-338) (natural protein)
